Results taken from paper PMC6949295 (2020).

B1: Exo70-Flag [rat] / HA-Exo84 [not stated] (parent complex)
chain 1: MIPPQEASARRREIEDKLKQEEETLSFIRDSLEKSDQLTKNMVSILSSFESRLMKLENSIIPVHKQTENLQRLQENVEKTLSCLDHVISYYHVASDTEKIIREGPTGRLEEYLGSMAKIQKAVEYFQDNSPDSPELNKVKLLFERGKESLESEFRSLMTRHSKVISPVLVLDLISADDELEVQEDVVLEHLPESVLQDVIRISRWLVEYGRNQDFMNVYYQIRSSQLDRSIKGLKEHFRKSSSSSGVPYSPAIPNKRKDTPTKKPIKRPGRDDMLDVETDAYIHCVSAFVRLAQSEYQLLMGIIPEHHQKKTFDSLIQDALDGLMLEGENIVSAARKAIIRHDFSTVLTVFPILRHLKQTKPEFDQVLQGTAASTKNKLPGLITSMETIGAKALEDFADNIKNDPDKEYNMPKDGTVHELTSNAILFLQQLLDFQETAGAMLASQETSSSATSYNSEFSKRLLSTYICKVLGNLQLNLLSKSKVYEDPALSAIFLHNNYNYILKSLEKSELIQLVAVTQKTAERSYREHIEQQIQTYQRSWLKVTDYIAEKNLPVFQPGVKLRDKERQMIKERFKGFNDGLEELCKIQKAWAIPDTEQRDKIRQAQKSIVKETYGAFLHRYSSVPFTKNPEKYIKYRVEQVGDMIDRLFDTSA
chain 2: MSDSGASRLRRQLESGGFEARLYVKQLSQQSDGDRDLQEHRQRVQALAEETAQNLKRNVYQNYRQFIETAREISYLESEMYQLSHLLTEQKSSLESIPLALLPAAAAGASTGEDTAGAGPRERGAAQAGFLPGPAGVPREGPGTGEEGKQRTLTTLLEKVEGCRDLLETPGQYLVYNGDLVEYEADHMAQLQRVHGFLMNDCLLVATWLPQRRGMYRYNALYPLDRLAVVNVKDNPPMKDMFKLLMFPESRIFQAENAKIKREWLEVLEETKRALSDKRRREQEEAAALRAPPPVTSKGSNPFEDEAEEELATPEAEEEKVDLSMEWIQELPEDLDVCIAQRDFEGAVDLLDKLNHYLEDKPSPPSVKELRAKVDERVRQLTEVLVFELSPDRSLRGGPKATRRAVSQLIRLGQCTKACELFLRNRAAAVHTAIRQLRIEGATLLYIHKLCHVFFTSLLETAREFETDFAGTDSGCYSAFVVWARSAMGMFVDAFSKQVFDSKESLSTAAECVKVAKEHCQQLGEIGLDLTFIIHALLVKDIQGALLSYKEIIIEATKHRNSEEMWRRMNLMTPEALGKLKEEMRSCGVSNFEQYTGDDCWVNLSYTVVAFTKQTMGFLEEALKLYFPELHMVLLESLVEVILVAVQHVDYSLRCEQDPEKKTFIRQNASFLYDTVLPVVERRFEEGVGKPAKQLQDLRNASRLLRVNPESTTSVV

Variants of: B1
Experiment: co-immunoprecipitation (IP: HA, blot: Flag); 293T cells; parent: 0.13

response [relative band intensity]	Variant
0	chain 1 S47D, chain 1 S59D, chain 1 S89D
